Where “and” joins values, the source holds several entries; their conditions need not be identical. Equal entries are not always repeated.
How the values were obtained:
claudin-1 transcripts = test: qPCR of claudin-1 transcripts in PHK transfected with claudin-1 siRNA; assay type: cell-based, human; conditions: siRNA 100 nM, 2^-ΔΔCt, GAPDH normalised, listed as Cldn1 siRNA
Experimental: (§1) QPCR was performed using the iScript™ cDNA Synthesis kit and iQ™ SYBER Green Supermix assay system (Bio-Rad Laboratories). All PCR amplifications were carried out in triplicate on an iQ5 Multicolor real-time PCR detection system (Bio-Rad). Primers were designed and synthesized by Integrated
(§2) DNA Technologies (Table 1). Relative gene expression was calculated by using the 2^−ΔΔCt method. Livak and Schmittgen, “Analysis of Relative Gene Expression Data Using Real-Time Quantitative PCR and the 2(-Delta Delta C(T)) Method,” Methods 25:402-8 (2001), which is hereby incorporated by reference in its entirety. The normalized Ct value of each sample was calculated using GAPDH as an endogenous control gene.
(§3) PHK were plated on glass coverslips at 2-3×10^5 cells/well in a 6-well plate or at 2-3×10^4 cells/filter in Transwell insert (Costar; PET membrane, 0.4 μm pore size, 6.5 mm insert) in Keratinocyte-SFM without antibiotics. […]
siRNA approach was used to selectively downregulate claudin-1 in primary human keratinocytes (PHK). […] Relative gene expressions were calculated by using the 2^−ΔΔCt method, in which Ct indicates cycle threshold, the fractional cycle number where the fluorescent signal reaches detection threshold. The normalized Ct value of each sample was calculated using GAPDH as endogenous control gene. […]

[1] = tested on: primary human keratinocytes (PHK); test: Trans Epithelial Electric Resistance (TEER) of PHK; assay type: cell-based
Experimental: Human keratinocytes were isolated from neonatal foreskin. Poumay et al., “Basal Detachment of the Epidermis Using Dispase: Tissue Spatial Organization and Fate of Integrin Alpha 6 Beta 4 and Hemidesmosomes,” J. Invest. Dermatol. 102:111-7 (1994), which is hereby incorporated by reference in its entirety. PHK were cultured in Keratinocyte-SFM (Invitrogen/Gibco) with 1% Pen/Strep, 0.2% Amphotericin B (Invitrogen/Gibco). To differentiate PHK, cells were grown in DMEM (Invitrogen/Gibco) with 10% heat-inactivated fetal bovine serum (Invitrogen/Gibco) and 1% Pen/Strep, 0.2% Amphotericin B (Invitrogen/Gibco). For TJ modulation experiments, the following cytokines were added alone or in combination to the differentiation media; human IL-4 (50 ng/ml; R&D system) and IL-13 (50 ng/ml; R&D system).
PHK were plated at a subconfluent density of 2.5−3×10^4 cells/filter in Transwell insert and cultured in Keratinocyte-SFM media until confluent. TEER was measured using an EVOMX voltohmmeter (World Precision Instruments, Sarasota, Fla.). The resistance of cell-free filters was subtracted from each experimental value.
PHK were plated on glass coverslips at 2-3×10^5 cells/well in a 6-well plate or at 2-3×10^4 cells/filter in Transwell insert (Costar; PET membrane, 0.4 μm pore size, 6.5 mm insert) in Keratinocyte-SFM without antibiotics. The next day after plating, cells were transfected with claudin-1 specific or control (scrambled) siRNAs (Santa Cruz) using Lipofectamine™ 2000 transfection Reagent (Invitrogen). TEER and permeability experiments were conducted 48 hours after PHK were switched to differentiation media.
TEER was measured in PHK as described above. PHK were stimulated with S. aureus-derived peptidoglycan (PGN, 0.2-20 μg/ml, n=3-7) (FIG. 19A), Malp-2 (10-1000 ng/ml, n=3) (FIG. 19B), and Pam3CSK4 a TLR1/2 ligand (0.01-20 μg/ml, n=3-6) (FIG. 19C). Data are presented by analyzing the area under the TEER curve and normalized to the mean values for the control group (media alone)*p<0.05; **p<0.01.

HSV-1 strain F = test: Infectious center assay (HSV-1 infected PHK on Vero cells); assay type: cell-based, human; conditions: siRNA 100 nM, 24 h post-infection, n=3
Experimental: Infection studies were performed using the highly virulent HSV-1 strain F (provided by Dr. D.C. Johnson). Twenty-four to 48 h post-transfection with 100 nM claudin-1 or control siRNA, the cells were differentiated in DMEM with 10% heat-inactivated FBS for 24 h. Cells were washed twice with HBSS and infected with HSV-1 strain F at a multiplicity of infection (MOI) of 0.1 in DMEM containing 1% heat-inactivated FBS at 37° C., with rocking every 15 min. After 2 h, the viral inoculum was removed, and the cells were washed 2× with HBSS and incubated in DMEM containing 5% HI-FBS and 0.4% human-γ-globulin (Sigma; final concentration 0.5 mg/ml) for 24 hr to neutralize any extracellular virus.
Twenty-four hours post-infection, PHK were treated with 0.05% Trypsin—EDTA (Invitrogen/Gibco) for 5 min at 37° C. followed by gently scraping to lift the cells, washed 3 times in DMEM containing 1% HI-FBS, and vortexed for 30 sec to disrupt cell clumps. Alive cells were counted using Trypan blue exclusion and scalar PHK dilutions (1000 to 1 cells in 1 ml of media) were plated onto pre-grown monolayers of Vero cells in six well plates. After 2 h, 1 ml of DMEM containing 5% HI-FBS and 0.4% human-γ-globulin (Sigma; final concentration 0.5 mg/ml) was added to each well. […] Plaques were counted by 2 independent investigators and results expressed as percent of infected PHK.

connexin-26 (GJB2) = test: qPCR of connexin-26 in claudin-1 siRNA transfected PHK; assay type: cell-based, human; conditions: n=6
Experimental: as §1, §2

claudin-1 = test: Western blot of claudin-1 in siRNA transfected PHK; assay type: cell-based, human; conditions: 48 h
Experimental: (§4) PHK were lysed on ice in RIPA lysis buffer (20 mM Tris, 50 mM NaCl, 2 mM EDTA, 2 mM EGTA, 1% sodium deoxycholate, 1% TX-100, and 2% SDS, pH 7.4), with 1:100 Protease Inhibitor Cocktail (Sigma), 1:100 Phosphatase Inhibitor Cocktail ([…] for 30 min at 4° C. The samples were heated at 95° C. for 10 min and then centrifuged at 14,000 rpm for 15 min. Forty μg of protein, determined by BCA (Pierce) in NuPage LDS Sample Buffer (Invitrogen) was applied to 4-12% NuPage Bis-Tris gels (Invitrogen). Electrophoresis was performed under reducing conditions with MES SDS Buffer (Invitrogen). Membranes were incubated in blotting solution (5% non-fat dry milk in PBS+0.05% Tween 20) at RT for 1 h and then incubated with primary antibodies; claudin-1 (JAY.8; Zymed), occludin (OC/3F10; Zymed) and GAPDH (FL-355; Santa Cruz). An HRP-linked secondary antibody (GE Healthcare) was used with ECL (GE Healthcare) to visualize bands by autoradiography with Kodak BioMax MR film. The pixel intensity of each band was estimated with Image J.
as §3

occludin = test: Western blot of occludin in siRNA transfected PHK; assay type: cell-based, human; conditions: 48 h
Experimental: as §4, §3

Chain of claudin-1 (O95832 whole entry): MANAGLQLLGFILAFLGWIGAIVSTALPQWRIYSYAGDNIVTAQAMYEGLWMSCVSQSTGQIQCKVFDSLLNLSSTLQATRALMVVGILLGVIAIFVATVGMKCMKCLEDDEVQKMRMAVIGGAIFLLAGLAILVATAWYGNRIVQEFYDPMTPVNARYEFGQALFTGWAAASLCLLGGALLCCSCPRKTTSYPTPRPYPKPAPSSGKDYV

B1: CLDN1 siRNA: claudin-1 siRNA (h), Santa Cruz; a pool of 3 separate strands, SEQ ID NO: 10-15 (nucleic acid)
chain 1: UACAUAGGCAUAGUUCAUGNN
chain 2: CAUGAACUAUGCCUAUGUANN
chain 3: AACGUAUGCAGUUAAUUCCNN
chain 4: GGAAUUAACUGCAUACGUUNN
chain 5: UGAAGAUCUAUGUAUGUGGNN
chain 6: CCACAUACAUAGAUCUUCANN
modifications: chemistry not given here
claudin-1 transcripts
  claudin-1 transcripts, fold of control transfected cells: 0.5%±0.06 fold
[1]; CLDN1 siRNA, PHK, n=4
  TEER (FIG. 12C legend): 80.6±6.4
[1]; siRNA 100 nM, PHK 48 hours after switch to differentiation media, n=4
  TEER: 80.6±6.4 ohms×cm^2
[1]; siRNA 100 nM, vs scrambled siRNA-transfected PHK
  drop in TEER: ≥ 50%
HSV-1 strain F
  PHK infected with HSV-1: 38±6% and 38±6.43%
connexin-26 (GJB2)
  connexin-26 (GJB2) expression, fold over control: 1.7±0.8 fold
claudin-1
  claudin-1 protein by Western blot: dose-dependent reduction
claudin-1; Western blot, dose-dependent
  decrease in claudin-1 protein expression compared to scrambled siRNA-transfected cells: ≤ 60%
occludin
  occludin protein by Western blot: No change

From patent US20130046257A1, “METHODS OF USING AGENTS THAT MODULATE CLAUDIN EXPRESSION” (priority 2010, published 2013)
